In paper PMC11741350:

How the values were obtained:
[1] = biological target: HA-RNF25 mutant lacking the Proline-Rich domain (human); assay: co-IP
[2] = biological target: HA-RNF25 mutant lacking the RING+L+U5BR domains (human); assay: co-IP

Chain of REV7 (Q9UI95 whole entry): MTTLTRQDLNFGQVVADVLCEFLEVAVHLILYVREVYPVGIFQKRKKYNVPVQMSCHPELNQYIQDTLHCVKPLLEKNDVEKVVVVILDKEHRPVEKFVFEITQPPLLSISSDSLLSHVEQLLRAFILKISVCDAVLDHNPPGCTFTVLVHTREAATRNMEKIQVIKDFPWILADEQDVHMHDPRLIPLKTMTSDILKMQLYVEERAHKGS

Substance: REV7 (from UniProt Q9UI95 1-211) (natural protein)
- fold reduction of co-precipitated REV7 against wild-type HA-RNF25 [1]: 3.13 fold
- fold reduction of co-precipitated REV7 against wild-type HA-RNF25 [2]: 2.33 fold
